Measured values from US20220143196A1 (ARIZONA BOARD OF REGENTS ON BEHALF OF THE UNIVERSITY OF …, published 2022).

What was measured:
[1] = target: T1, human melanocortin 1 receptor (MC1R) (human, UniProt Q01726 1-317); assay: competitive binding vs 125I-NDP-α-MSH on whole HEK293 cells overexpressing human MC1R
T1 construct: whole, on cells; also called MC1 receptor
Procedure: (§1) Competitive binding assays were performed on whole cells. Stably transfected HEK293 cell lines overexpressing human MC1R, MC3R, MC4R or MC5R were seeded on 96-well plates 48 h before the assay and grown to 100,000 cells per well. For the assay, the medium was removed, and cells were washed twice with a binding buffer containing minimum essential medium with Earle's salt (MEM, GIBCO), 25 mM HEPES (pH 7.4), 0.2% bovine serum albumin, 1 mM 1,10-phenanthrolone, 0.5 mg/L leupeptin and 200 mg/L bacitracin. […] The medium was subsequently removed, and the cells were washed twice with the binding buffer. The cells were lysed by 50 μL of 0.1 mM NaOH and 50 μL of 1% Triton X-100. The plates were left dry overnight under the hood, and 50 μL of scintillation fluid (OptiPhase SuperMix, PerkinElmer) were added in each well. The radioactivity was measured using MicroBeta 2 microplate counter (PerkinElmer). Data were analyzed using Graphpad Prism 6 (Graphpad Software, San Diego, Calif.).

[2] = target: T2, human MC3R (human, UniProt P41968 1-323); assay: competitive binding vs 125I-NDP-α-MSH on whole HEK293 cells overexpressing human MC3R
T2 construct: whole, on cells
T2 sequence (P41968 whole entry): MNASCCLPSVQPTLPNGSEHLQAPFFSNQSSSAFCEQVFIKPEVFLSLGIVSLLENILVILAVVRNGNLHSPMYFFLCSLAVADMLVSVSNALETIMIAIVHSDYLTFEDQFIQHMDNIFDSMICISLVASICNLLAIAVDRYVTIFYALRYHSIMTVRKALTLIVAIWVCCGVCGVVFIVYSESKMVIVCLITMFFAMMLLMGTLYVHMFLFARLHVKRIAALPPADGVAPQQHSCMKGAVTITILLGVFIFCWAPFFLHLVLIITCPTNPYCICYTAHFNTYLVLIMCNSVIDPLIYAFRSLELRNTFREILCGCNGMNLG
Procedure: as §1

[3] = target: T3, human MC5R (human, UniProt P33032 1-325); assay: competitive binding vs 125I-NDP-α-MSH on whole HEK293 cells overexpressing human MC5R
T3 construct: whole, on cells
T3 sequence (P33032 whole entry): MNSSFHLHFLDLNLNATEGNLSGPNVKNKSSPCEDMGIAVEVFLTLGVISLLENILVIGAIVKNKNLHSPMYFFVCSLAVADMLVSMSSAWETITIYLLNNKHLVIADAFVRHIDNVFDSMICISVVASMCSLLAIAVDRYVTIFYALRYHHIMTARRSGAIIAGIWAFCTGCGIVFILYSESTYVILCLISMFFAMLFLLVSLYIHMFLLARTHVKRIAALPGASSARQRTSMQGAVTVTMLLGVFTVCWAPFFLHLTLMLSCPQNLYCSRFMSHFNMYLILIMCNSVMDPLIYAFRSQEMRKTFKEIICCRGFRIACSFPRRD
Procedure: as §1

[4] = target: T4, human MC4R (human, UniProt P32245 1-332); assay: competitive binding vs 125I-NDP-α-MSH on whole HEK293 cells overexpressing human MC4R
T4 construct: whole, on cells
T4 sequence (P32245 whole entry): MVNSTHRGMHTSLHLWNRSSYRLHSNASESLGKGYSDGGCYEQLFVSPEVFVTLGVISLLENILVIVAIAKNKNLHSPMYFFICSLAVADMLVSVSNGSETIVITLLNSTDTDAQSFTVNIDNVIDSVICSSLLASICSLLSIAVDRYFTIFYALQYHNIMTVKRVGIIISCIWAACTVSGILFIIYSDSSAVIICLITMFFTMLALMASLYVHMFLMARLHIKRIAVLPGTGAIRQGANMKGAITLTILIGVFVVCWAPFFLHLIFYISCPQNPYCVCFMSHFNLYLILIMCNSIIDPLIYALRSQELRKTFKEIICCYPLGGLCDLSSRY
Procedure: as §1

T1 sequence (Q01726 whole entry): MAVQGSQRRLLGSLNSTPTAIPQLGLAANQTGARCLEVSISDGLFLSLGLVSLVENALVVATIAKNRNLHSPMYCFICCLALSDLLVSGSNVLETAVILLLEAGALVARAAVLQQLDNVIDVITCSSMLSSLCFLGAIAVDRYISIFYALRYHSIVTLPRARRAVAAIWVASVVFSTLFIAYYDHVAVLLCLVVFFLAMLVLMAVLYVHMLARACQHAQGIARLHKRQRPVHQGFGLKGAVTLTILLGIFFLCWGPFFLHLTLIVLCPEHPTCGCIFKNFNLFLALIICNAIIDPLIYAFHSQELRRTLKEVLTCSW

B1: fluorescein-MT-II conjugate (2) (peptide)
peptide: CXLDHFRWK
modifications: not fully specified; Cys 1 thiol joined by a disulfide to a 2-thioethyl carbonate linker carrying fluorescein; 6-aminohexanoic acid (6-Ahx) at 2; Nle at 3; D-Phe at 6; lactam cyclization between Asp 4 and Lys 9 side chains; C-terminal amide; no N-terminal acetyl on Nle (replaced by the Cys-6-Ahx spacer)
notes: also called fluorescein-MT-II (2); compound 2
[1]
  Ki: 172 nM

B2: camptothecin (CPT)-MT-II conjugate (1) (peptide)
peptide: CXLDHFRWK
modifications: not fully specified; Cys 1 thiol joined by a disulfide to a 2-thioethyl carbonate linker carrying camptothecin; 6-aminohexanoic acid (6-Ahx) at 2; Nle at 3; D-Phe at 6; lactam cyclization between Asp 4 and Lys 9 side chains; C-terminal amide; no N-terminal acetyl on Nle (replaced by the Cys-6-Ahx spacer)
notes: also called CPT-MT-II (1); camptothecin-MT-II (1)
[2]
  Ki: 300 nM
[3]
  Ki: 194 nM
[4]
  Ki: 173 nM
[1]
  Ki: 57 nM
